Values of other authors as cited in patent US7419780B2, “Methods and assays for screening protein targets” (The Trustees of Columbia University in the City of New York, priority 2000, dated 2008).

Details: substrate nitrocefin

B1: E. cloacae P99 wt: wild-type E. cloacae P99 cephase (protein, UniProt P05364 21-381, looked up)
Beta-lactamase: TPVSEKQLAEVVANTITPLMKAQSVPGMAVAVIYQGKPHYYTFGKADIAANKPVTPQTLFELGSISKTFTGVLGGDAIARGEISLDDAVTRYWPQLTGKQWQGIRMLDLATYTAGGLPLQVPDEVTDNASLLRFYQNWQPQWKPGTTRLYANASIGLFGALAVKPSGMPYEQAMTTRVLKPLKLDHTWINVPKAEEAHYAWGYRDGKAVRVSPGMLDAQAYGVKTNVQDMANWVMANMAPENVADASLKQGIALAQSRYWRIGSMYQGLGWEMLNWPVEANTVVEGSDSKVALAPLPVAEVNPPAPPVKASWVHKTGSTGGFGSYVAFIPEKQIGIVMLANTSYPNPARVEAAYHILEALQ
- % WT (percentage of wild-type kcat/Km as calculated in that experiment): 100%
- Km: 25 ± 1 µM
- kcat: 780 ± 30 s⁻¹
